Drawing on article PMC7335187, “Super-assembly of ER-phagy receptor Atg40 induces local ER remodeling at contacts with forming autophagosomal membranes” (Nature Communications, 2020), this text covers Kd for 4 molecules.

Assay in all cases: ITC
A general note: ITC needs no label: the signal is the heat of the interaction.

Experiment [1] has as its target human GABARAP (1-116), O95166. To be noted: chain shown with the change.
Experiment [2] concerns the target T1, FAM134B^444–470 peptide, Q9H6L5.
T1 chain: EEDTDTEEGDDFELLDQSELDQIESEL
The note with it: chain shown with the change.

The target in experiment [3] is T2, SEC62^355–376 peptide, Q99442.
T2 chain: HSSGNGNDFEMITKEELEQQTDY
The note with it: chain shown with the change.

The target of experiment [4] is T3, Atg8 (1-116) K26P, P38182.
T3 chain: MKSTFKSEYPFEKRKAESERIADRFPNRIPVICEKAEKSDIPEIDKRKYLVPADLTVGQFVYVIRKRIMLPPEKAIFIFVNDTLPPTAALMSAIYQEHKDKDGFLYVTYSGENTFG
The note with it: chain shown with the change; Atg8 (1.8 mM).

As for GPEEDTDTEEGDDAELLDQSELDQIESELY [FAM134B^444–470 peptide, Q9H6L5 F455A], the Kd in experiment [1] was 3.55 µM. This counts as single-digit micromolar.

B1: human GABARAP (1-116), O95166 R67A (protein)
chain: MKFVYKEEHPFEKRRSEGEKIRKKYPDRVPVIVEKAPKARIGDLDKKKYLVPSDLTVGQFYFLIRKAIHLRAEDALFFFVNNVIPPTSATMGQLYQEHHEEDFFLYIAYSDESVYG
With B1, the results for the Kd in experiment [2] and in experiment [3] were 1.88 µM and 9.43 µM, respectively.
For GPHSSGNGNDFAMITKEALEQQTDY [SEC62^355–376 peptide, Q99442 E364A; E370A], the Kd in experiment [1] was 35.1 µM. This lies in the double-digit micromolar range.
The molecule EFPNDYAFMEAILDET [Atg40^237–252 peptide, Q99325 D243A; D247A] returned a Kd in experiment [4] of 83.3 µM.

As a reminder, the Kd is the constant that tells how readily two partners part at equilibrium. A high value points to a looser complex.
